Assay results taken from patent US20210388110A1 (published 2021).

Molecular target: T1, soluble human GPC3 (human, UniProt P51654 25-563, limits assumed)
T1 construct: soluble human GPC3 as analyte; also called glypican 3
Test: SPR (Biacore), soluble human GPC3

T1 sequence (P51654 other isoform, or with tags, fused parts or gaps limits assumed, form in doubt): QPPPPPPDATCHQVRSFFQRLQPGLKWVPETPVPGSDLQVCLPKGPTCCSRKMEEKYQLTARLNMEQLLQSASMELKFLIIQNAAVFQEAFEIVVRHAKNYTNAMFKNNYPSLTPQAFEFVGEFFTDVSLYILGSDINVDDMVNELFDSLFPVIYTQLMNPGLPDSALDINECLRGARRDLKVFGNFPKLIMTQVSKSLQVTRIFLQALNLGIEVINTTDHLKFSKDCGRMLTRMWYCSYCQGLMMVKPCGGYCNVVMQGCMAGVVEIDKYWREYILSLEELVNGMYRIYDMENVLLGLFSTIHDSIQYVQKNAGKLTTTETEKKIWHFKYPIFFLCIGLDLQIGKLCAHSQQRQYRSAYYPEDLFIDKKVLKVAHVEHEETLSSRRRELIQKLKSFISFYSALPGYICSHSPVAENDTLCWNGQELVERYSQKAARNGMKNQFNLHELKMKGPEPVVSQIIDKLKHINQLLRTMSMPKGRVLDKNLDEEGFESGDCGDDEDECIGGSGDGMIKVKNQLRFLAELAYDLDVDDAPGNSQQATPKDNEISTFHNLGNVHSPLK

Row | Kd [nM] | Binder
1 | 4.36 | GCH019-G1dh/none-Hi-Kn010G3/L0000-k0 (antibody, human IgG1, kappa, single-arm (one Fab)) heavy: not shown EPKSSDKTHTCPPCPAPELLGGPSVFLFPPKPKDTLMISRTPEVTCVVVDVSHEDPEVKFNWYVDGVEVHNAKTKPREEQYNSTYRVVSVLTVLHQDWLNGKEYKCKVSNKALPAPIEKTISKAKGQPREPQVCTLPPSRDELTKNQVSLWCLVKGFYPSDIAVEWESNGQPENNYKTTPPVLDSDGSFFLYSKLTVDKSRWQQGNVFSCSVMHEALHNRYTQKSLSLSP light: DIVMTQSPLSLPVTPGEPASISCRSSQSLVHSNRNTYLHWYQQKPGQAPRLLIYKVSNRFSGVPDRFSGSGSGTDFTLKISRVEAEDVGVYYCGQGTQVPYTFGQGTKLEIKRTVAAPSVFIFPPSDEQLKSGTASVVCLLNNFYPREAKVQWKVDNALQSGNSQESVTEQDSKDSTYSLSSTLTLSKADYEKHKVYACEVTHQGLSSPVTKSFNRGEC
2 | 4.06 | GCH006-G1dh/none-Hi-Kn010G3/L0000-k0 (antibody, human IgG1, kappa, single-arm (one Fab)) heavy: not shown EPKSSDKTHTCPPCPAPELLGGPSVFLFPPKPKDTLMISRTPEVTCVVVDVSHEDPEVKFNWYVDGVEVHNAKTKPREEQYNSTYRVVSVLTVLHQDWLNGKEYKCKVSNKALPAPIEKTISKAKGQPREPQVCTLPPSRDELTKNQVSLWCLVKGFYPSDIAVEWESNGQPENNYKTTPPVLDSDGSFFLYSKLTVDKSRWQQGNVFSCSVMHEALHNRYTQKSLSLSP light: DIVMTQSPLSLPVTPGEPASISCRSSQSLVHSNRNTYLHWYQQKPGQAPRLLIYKVSNRFSGVPDRFSGSGSGTDFTLKISRVEAEDVGVYYCGQGTQVPYTFGQGTKLEIKRTVAAPSVFIFPPSDEQLKSGTASVVCLLNNFYPREAKVQWKVDNALQSGNSQESVTEQDSKDSTYSLSSTLTLSKADYEKHKVYACEVTHQGLSSPVTKSFNRGEC
3 | 5.01 | GCH029-G1dh/none-Hi-Kn010G3/L0000-k0 (antibody, human IgG1, kappa, single-arm (one Fab)) heavy: not shown EPKSSDKTHTCPPCPAPELLGGPSVFLFPPKPKDTLMISRTPEVTCVVVDVSHEDPEVKFNWYVDGVEVHNAKTKPREEQYNSTYRVVSVLTVLHQDWLNGKEYKCKVSNKALPAPIEKTISKAKGQPREPQVCTLPPSRDELTKNQVSLWCLVKGFYPSDIAVEWESNGQPENNYKTTPPVLDSDGSFFLYSKLTVDKSRWQQGNVFSCSVMHEALHNRYTQKSLSLSP light: DIVMTQSPLSLPVTPGEPASISCRSSQSLVHSNRNTYLHWYQQKPGQAPRLLIYKVSNRFSGVPDRFSGSGSGTDFTLKISRVEAEDVGVYYCGQGTQVPYTFGQGTKLEIKRTVAAPSVFIFPPSDEQLKSGTASVVCLLNNFYPREAKVQWKVDNALQSGNSQESVTEQDSKDSTYSLSSTLTLSKADYEKHKVYACEVTHQGLSSPVTKSFNRGEC
4 | 4.14 | GCH015-G1dh/none-Hi-Kn010G3/L0000-k0 (antibody, human IgG1, kappa, single-arm (one Fab)) heavy: not shown EPKSSDKTHTCPPCPAPELLGGPSVFLFPPKPKDTLMISRTPEVTCVVVDVSHEDPEVKFNWYVDGVEVHNAKTKPREEQYNSTYRVVSVLTVLHQDWLNGKEYKCKVSNKALPAPIEKTISKAKGQPREPQVCTLPPSRDELTKNQVSLWCLVKGFYPSDIAVEWESNGQPENNYKTTPPVLDSDGSFFLYSKLTVDKSRWQQGNVFSCSVMHEALHNRYTQKSLSLSP light: DIVMTQSPLSLPVTPGEPASISCRSSQSLVHSNRNTYLHWYQQKPGQAPRLLIYKVSNRFSGVPDRFSGSGSGTDFTLKISRVEAEDVGVYYCGQGTQVPYTFGQGTKLEIKRTVAAPSVFIFPPSDEQLKSGTASVVCLLNNFYPREAKVQWKVDNALQSGNSQESVTEQDSKDSTYSLSSTLTLSKADYEKHKVYACEVTHQGLSSPVTKSFNRGEC
5 | 4.44 | GCH013-G1dh/none-Hi-Kn010G3/L0000-k0 (antibody, human IgG1, kappa, single-arm (one Fab)) heavy: not shown EPKSSDKTHTCPPCPAPELLGGPSVFLFPPKPKDTLMISRTPEVTCVVVDVSHEDPEVKFNWYVDGVEVHNAKTKPREEQYNSTYRVVSVLTVLHQDWLNGKEYKCKVSNKALPAPIEKTISKAKGQPREPQVCTLPPSRDELTKNQVSLWCLVKGFYPSDIAVEWESNGQPENNYKTTPPVLDSDGSFFLYSKLTVDKSRWQQGNVFSCSVMHEALHNRYTQKSLSLSP light: DIVMTQSPLSLPVTPGEPASISCRSSQSLVHSNRNTYLHWYQQKPGQAPRLLIYKVSNRFSGVPDRFSGSGSGTDFTLKISRVEAEDVGVYYCGQGTQVPYTFGQGTKLEIKRTVAAPSVFIFPPSDEQLKSGTASVVCLLNNFYPREAKVQWKVDNALQSGNSQESVTEQDSKDSTYSLSSTLTLSKADYEKHKVYACEVTHQGLSSPVTKSFNRGEC
6 | 4.12 | GCH010-G1dh/none-Hi-Kn010G3/L0000-k0 (antibody, human IgG1, kappa, single-arm (one Fab)) heavy: not shown EPKSSDKTHTCPPCPAPELLGGPSVFLFPPKPKDTLMISRTPEVTCVVVDVSHEDPEVKFNWYVDGVEVHNAKTKPREEQYNSTYRVVSVLTVLHQDWLNGKEYKCKVSNKALPAPIEKTISKAKGQPREPQVCTLPPSRDELTKNQVSLWCLVKGFYPSDIAVEWESNGQPENNYKTTPPVLDSDGSFFLYSKLTVDKSRWQQGNVFSCSVMHEALHNRYTQKSLSLSP light: DIVMTQSPLSLPVTPGEPASISCRSSQSLVHSNRNTYLHWYQQKPGQAPRLLIYKVSNRFSGVPDRFSGSGSGTDFTLKISRVEAEDVGVYYCGQGTQVPYTFGQGTKLEIKRTVAAPSVFIFPPSDEQLKSGTASVVCLLNNFYPREAKVQWKVDNALQSGNSQESVTEQDSKDSTYSLSSTLTLSKADYEKHKVYACEVTHQGLSSPVTKSFNRGEC

Second part, the binder before the results:

Row | Binder | Kd [nM]
7 | H0610-G1dh/none-Hi-Kn010G3/L0000-k0 (antibody, human IgG1, kappa, single-arm (one Fab)) heavy: not shown EPKSSDKTHTCPPCPAPELLGGPSVFLFPPKPKDTLMISRTPEVTCVVVDVSHEDPEVKFNWYVDGVEVHNAKTKPREEQYNSTYRVVSVLTVLHQDWLNGKEYKCKVSNKALPAPIEKTISKAKGQPREPQVCTLPPSRDELTKNQVSLWCLVKGFYPSDIAVEWESNGQPENNYKTTPPVLDSDGSFFLYSKLTVDKSRWQQGNVFSCSVMHEALHNRYTQKSLSLSP light: DIVMTQSPLSLPVTPGEPASISCRSSQSLVHSNRNTYLHWYQQKPGQAPRLLIYKVSNRFSGVPDRFSGSGSGTDFTLKISRVEAEDVGVYYCGQGTQVPYTFGQGTKLEIKRTVAAPSVFIFPPSDEQLKSGTASVVCLLNNFYPREAKVQWKVDNALQSGNSQESVTEQDSKDSTYSLSSTLTLSKADYEKHKVYACEVTHQGLSSPVTKSFNRGEC | 3.97
8 | GCH007-G1dh/none-Hi-Kn010G3/L0000-k0 (antibody, human IgG1, kappa, single-arm (one Fab)) heavy: not shown EPKSSDKTHTCPPCPAPELLGGPSVFLFPPKPKDTLMISRTPEVTCVVVDVSHEDPEVKFNWYVDGVEVHNAKTKPREEQYNSTYRVVSVLTVLHQDWLNGKEYKCKVSNKALPAPIEKTISKAKGQPREPQVCTLPPSRDELTKNQVSLWCLVKGFYPSDIAVEWESNGQPENNYKTTPPVLDSDGSFFLYSKLTVDKSRWQQGNVFSCSVMHEALHNRYTQKSLSLSP light: DIVMTQSPLSLPVTPGEPASISCRSSQSLVHSNRNTYLHWYQQKPGQAPRLLIYKVSNRFSGVPDRFSGSGSGTDFTLKISRVEAEDVGVYYCGQGTQVPYTFGQGTKLEIKRTVAAPSVFIFPPSDEQLKSGTASVVCLLNNFYPREAKVQWKVDNALQSGNSQESVTEQDSKDSTYSLSSTLTLSKADYEKHKVYACEVTHQGLSSPVTKSFNRGEC | 4.93
9 | GCH016-G1dh/none-Hi-Kn010G3/L0000-k0 (antibody, human IgG1, kappa, single-arm (one Fab)) heavy: not shown EPKSSDKTHTCPPCPAPELLGGPSVFLFPPKPKDTLMISRTPEVTCVVVDVSHEDPEVKFNWYVDGVEVHNAKTKPREEQYNSTYRVVSVLTVLHQDWLNGKEYKCKVSNKALPAPIEKTISKAKGQPREPQVCTLPPSRDELTKNQVSLWCLVKGFYPSDIAVEWESNGQPENNYKTTPPVLDSDGSFFLYSKLTVDKSRWQQGNVFSCSVMHEALHNRYTQKSLSLSP light: DIVMTQSPLSLPVTPGEPASISCRSSQSLVHSNRNTYLHWYQQKPGQAPRLLIYKVSNRFSGVPDRFSGSGSGTDFTLKISRVEAEDVGVYYCGQGTQVPYTFGQGTKLEIKRTVAAPSVFIFPPSDEQLKSGTASVVCLLNNFYPREAKVQWKVDNALQSGNSQESVTEQDSKDSTYSLSSTLTLSKADYEKHKVYACEVTHQGLSSPVTKSFNRGEC | 4.59
10 | GCH027-G1dh/none-Hi-Kn010G3/L0000-k0 (antibody, human IgG1, kappa, single-arm (one Fab)) heavy: not shown EPKSSDKTHTCPPCPAPELLGGPSVFLFPPKPKDTLMISRTPEVTCVVVDVSHEDPEVKFNWYVDGVEVHNAKTKPREEQYNSTYRVVSVLTVLHQDWLNGKEYKCKVSNKALPAPIEKTISKAKGQPREPQVCTLPPSRDELTKNQVSLWCLVKGFYPSDIAVEWESNGQPENNYKTTPPVLDSDGSFFLYSKLTVDKSRWQQGNVFSCSVMHEALHNRYTQKSLSLSP light: DIVMTQSPLSLPVTPGEPASISCRSSQSLVHSNRNTYLHWYQQKPGQAPRLLIYKVSNRFSGVPDRFSGSGSGTDFTLKISRVEAEDVGVYYCGQGTQVPYTFGQGTKLEIKRTVAAPSVFIFPPSDEQLKSGTASVVCLLNNFYPREAKVQWKVDNALQSGNSQESVTEQDSKDSTYSLSSTLTLSKADYEKHKVYACEVTHQGLSSPVTKSFNRGEC | 3.83
11 | GCH014-G1dh/none-Hi-Kn010G3/L0000-k0 (antibody, human IgG1, kappa, single-arm (one Fab)) heavy: not shown EPKSSDKTHTCPPCPAPELLGGPSVFLFPPKPKDTLMISRTPEVTCVVVDVSHEDPEVKFNWYVDGVEVHNAKTKPREEQYNSTYRVVSVLTVLHQDWLNGKEYKCKVSNKALPAPIEKTISKAKGQPREPQVCTLPPSRDELTKNQVSLWCLVKGFYPSDIAVEWESNGQPENNYKTTPPVLDSDGSFFLYSKLTVDKSRWQQGNVFSCSVMHEALHNRYTQKSLSLSP light: DIVMTQSPLSLPVTPGEPASISCRSSQSLVHSNRNTYLHWYQQKPGQAPRLLIYKVSNRFSGVPDRFSGSGSGTDFTLKISRVEAEDVGVYYCGQGTQVPYTFGQGTKLEIKRTVAAPSVFIFPPSDEQLKSGTASVVCLLNNFYPREAKVQWKVDNALQSGNSQESVTEQDSKDSTYSLSSTLTLSKADYEKHKVYACEVTHQGLSSPVTKSFNRGEC | 4.2
12 | GCH035-G1dh/none-Hi-Kn010G3/L0000-k0 (antibody, human IgG1, kappa, single-arm (one Fab)) heavy: not shown EPKSSDKTHTCPPCPAPELLGGPSVFLFPPKPKDTLMISRTPEVTCVVVDVSHEDPEVKFNWYVDGVEVHNAKTKPREEQYNSTYRVVSVLTVLHQDWLNGKEYKCKVSNKALPAPIEKTISKAKGQPREPQVCTLPPSRDELTKNQVSLWCLVKGFYPSDIAVEWESNGQPENNYKTTPPVLDSDGSFFLYSKLTVDKSRWQQGNVFSCSVMHEALHNRYTQKSLSLSP light: DIVMTQSPLSLPVTPGEPASISCRSSQSLVHSNRNTYLHWYQQKPGQAPRLLIYKVSNRFSGVPDRFSGSGSGTDFTLKISRVEAEDVGVYYCGQGTQVPYTFGQGTKLEIKRTVAAPSVFIFPPSDEQLKSGTASVVCLLNNFYPREAKVQWKVDNALQSGNSQESVTEQDSKDSTYSLSSTLTLSKADYEKHKVYACEVTHQGLSSPVTKSFNRGEC | 4.94
13 | GCH025-G1dh/none-Hi-Kn010G3/L0204-k0 (antibody, human IgG1, kappa, single-arm (one Fab)) heavy: not shown EPKSSDKTHTCPPCPAPELLGGPSVFLFPPKPKDTLMISRTPEVTCVVVDVSHEDPEVKFNWYVDGVEVHNAKTKPREEQYNSTYRVVSVLTVLHQDWLNGKEYKCKVSNKALPAPIEKTISKAKGQPREPQVCTLPPSRDELTKNQVSLWCLVKGFYPSDIAVEWESNGQPENNYKTTPPVLDSDGSFFLYSKLTVDKSRWQQGNVFSCSVMHEALHNRYTQKSLSLSP light: DIVMTQSPLSLPVTPGEPASISCRSSQSPVHSNRNTYLHWYQQKPGQAPRLLIYKVSNRFRGVPDRFSGSGSGTDFTLKISRVEAEDVGVYYCGQGTQVPYTFGQGTKLEIKRTVAAPSVFIFPPSDEQLKSGTASVVCLLNNFYPREAKVQWKVDNALQSGNSQESVTEQDSKDSTYSLSSTLTLSKADYEKHKVYACEVTHQGLSSPVTKSFNRGEC | 0.67
